Substitutions are numbered along the chain they refer to. Names may count otherwise. “And” between values parts separate entries of the source, which are not always exact repeats. Equal entries are not always repeated.
T1: Fu-bc subunit protein (Dengue virus (DENV-2-like E domain II), …)
T1 chain: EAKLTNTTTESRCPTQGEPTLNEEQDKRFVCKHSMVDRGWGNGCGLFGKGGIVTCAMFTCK

T2: Fu-bc fused to the GAL4 activation domain (pGADT7) (Dengue virus (DENV-2-like E domain II), …)
T2 chain: T1 chain

B1: scFv-Mutant9 (S227W) (scFv, V domains shown)
VH: EVKLVESGGGLVLPGGSLRLSCATSGFTFTDYYMTWVRQPPGKALEWLGFIGNKANDYTTEYSASVKGRFTISRDDSQSILYLQMSTLRAEDRATYYCATVYGNYPYFDVWGAGTTVAVSS
VL: QIVLTQSPAIMSASPGEKVTMTCSASSSVSYMHWYQQKSGTSPKIWIYESSKLASGVPVRFSGSGSGTSYSLTISSMEAEDVATYYCQQWSWHPHPLTFGAGTKLELK
B2: scFv-mutant18 (Y33Q, Y105W, H230W) (scFv, V domains shown)
VH: B1 VH with Y33Q, Y105W
VL: B1 VL with W92S, H95W
B3: scFv double mutant13 (Y33Q, G103T) (scFv, V domains shown)
VH: B1 VH with Y33Q, G103T
VL: B1 VL with W92S
B4: scFv double mutant12 (T30W, S227W) (scFv, V domains shown)
VH: B1 VH with T30W
VL: B1 VL
B5: scFv-Mutant7 (Y105W) (scFv, V domains shown)
VH: B1 VH with Y105W
VL: B1 VL with W92S
B6: scFv-mutant17 (Y33Q, G103T, S227L) (scFv, V domains shown)
VH: B1 VH with Y33Q, G103T
VL: B1 VL with W92L
B7: scFv-Mutant6 (G103T) (scFv, V domains shown)
VH: B1 VH with G103T
VL: B1 VL with W92S
B8: scFv single mutant D31L (scFv, V domains shown)
VH: B1 VH with D31L
VL: B1 VL with W92S
B9: scFv-Mutant1 (T30W) (scFv, V domains shown)
VH: B1 VH with T30W
VL: B1 VL with W92S
B10: scFv double mutant T30W, S227L (scFv, V domains shown)
VH: B1 VH with T30W
VL: B1 VL with W92L
B11: scFv-Mutant5 (Y33Q) (scFv, V domains shown)
VH: B1 VH with Y33Q
VL: B1 VL with W92S
B12: scFv single mutant D31F (scFv, V domains shown)
VH: B1 VH with D31F
VL: B1 VL with W92S
B13: scFv-mutant16 (T30W, Y33Q, S227W) (scFv, V domains shown)
VH: B1 VH with T30W, Y33Q
VL: B1 VL
B14: scFv-Mutant8 (S227L) (scFv, V domains shown)
VH: B1 VH
VL: B1 VL with W92L
B15: scFv-mutant15 (D31L, Y105W, S227W) (scFv, V domains shown)
VH: B1 VH with D31L, Y105W
VL: B1 VL
B16: scFv-mutant15 fused to the GAL4 DNA-binding domain (pGBKT7) (scFv, V domains shown)
VH: B1 VH with D31L, Y105W
VL: B1 VL
B17: scFv-mutant16 fused to the GAL4 DNA-binding domain (pGBKT7) (scFv, V domains shown)
VH: B1 VH with T30W, Y33Q
VL: B1 VL
B18: scFv-mutant17 fused to the GAL4 DNA-binding domain (pGBKT7) (scFv, V domains shown)
VH: B1 VH with Y33Q, G103T
VL: B1 VL with W92L
B19: scFv-mutant18 fused to the GAL4 DNA-binding domain (pGBKT7) (scFv, V domains shown)
VH: B1 VH with Y33Q, Y105W
VL: B1 VL with W92S, H95W

Target: T1, Fu-bc subunit protein
Experiment: SPR

| Binder | binding result | fold change in affinity against the WT [fold] | Kd |
| --- | --- | --- | --- |
| B1 | binds |  |  |
| B2 |  | ~7 |  |
| B3 |  | 45 |  |
| B4 | binds |  |  |
| B5 | binds |  |  |
| B6 |  |  | 0.027 ± 0.011 µM |
| B7 | binds |  |  |
| B8 | binds |  |  |
| B9 | binds |  |  |
| B10 | binds |  |  |
| B11 |  |  | 0.302 ± 0.015 µM |
| B12 | binds |  |  |
| B13 |  |  | 0.052 ± 0.017 µM |
| B14 | binds |  |  |
| B15 |  |  | 0.024 µM and 0.02 to 0.052 µM |

Target: T1, Fu-bc subunit protein
Experiment: BLI

| Binder | Kd [µM] |
| --- | --- |
| B2 | 0.31 ± 0.035 |
| B6 | 0.031 ± 0.014 |
| B13 | 0.047 ± 0.019 |
| B15 | 0.021 ± 0.011 |

Target: T2, Fu-bc fused to the GAL4 activation …
Experiment: two-hybrid

| Binder | binding result |
| --- | --- |
| B16 | binds |
| B17 | binds |
| B18 | binds |
| B19 | binds |

Reference: publication PMC8956951 (The Journal of Biological Chemistry, 2022)
